The target of the experiment is His-tagged SARS-CoV-2 nucleocapsid (SARS-CoV-2, UniProt P0DTC9 1-419). The experiment in a line: pull-down.

B1: GST-GSDMD mutant lacking amino acids 265-284 (natural protein)
chain: MGSAFERVVRRVVQELDHGGEFIPVTSLQSSTGFQPYCLVVRKPSSSWFWKPRYKCVNLSIKDILEPDAAEPDVQRGRSFHFYDAMDGQIQGSVELAAPGQAKIAGGAAVSDSSSTSMNVYSLSVDPNTWQTLLHERHLRQPEHKVLQQLRSRGDNVYVVTEVLQTQKEVEVTRTHKREGSGRFSLPGATCLQGEGQGHLSQKKTVTIPSGSTLAFRVAQLVIDSDLDVLLFPDKKQRTFQPPATGHKRSTSEGAWPQLPSGLSEDFQGLRAEVETISKELELLDRELCQLLLEGLEGVLRDQLALRALEEALEQGQSLGPVEPLDGPAGAVLECLVLSSGMLVPELAIPVVYLLGALTMLSETQHKLLAEALESQTLLGPLELVGSLLEQSAPWQERSTMSLPPGLLGNSWGEGAPAWVLLDECGLELGEDTPHVCWEPQAQGRMCALYASLALLSGLSQEPH
As for B1, the binding result is recorded as “binds”.

The values above are taken from paper PMC8420271 (The EMBO Journal, 2021).
